EC50 and Kd data for 8 molecules are collected here from patent publication US9029508 (dated 2015).

Test [1] deals with T1, IGF1R (human, UniProt P08069). In words: ELISA. For orientation: In an ELISA, binding on a coated surface is turned into a signal by an enzyme label.
In test [2] the target is T1, IGF1R. The test can be described thus: ELISA. This is another data set of the same source.
Test [3] has as its target T1, IGF1R. The test can be described thus: SPR. In general terms: SPR reads the build-up and loss of mass on a sensor chip optically.
Test [4] has as its target T2, IGF1 (human, UniProt P05019). The test can be described thus: SPR.
The target in test [5] is T2, IGF1. In words: ELISA.
Test [6] addresses T3, IGF2 (human, UniProt P01344). In words: ELISA.
In test [7] the target is T2, IGF1. In words: ELISA. The source holds these as a separate data set.
Test [8] deals with T3, IGF2. In words: SPR.
Test [9] has as its target T3, IGF2. In words: ELISA. This is another data set of the same source.
In test [10] the target is CD40 (human, UniProt P25942). The test can be described thus: ELISA.

Broadly, the EC50 is the concentration that produces a half-maximal response. Broadly, the Kd is the equilibrium constant for the complex coming apart. Low values mean a tighter complex, high ones a looser complex.

Values joined by “and” are separate entries in the source; they are usually repeats but may differ in a detail not shown here. Identical values can stand only once. Like-named read-outs stand apart in the source and are kept apart here.

CD40, sequence (P25942 21-193): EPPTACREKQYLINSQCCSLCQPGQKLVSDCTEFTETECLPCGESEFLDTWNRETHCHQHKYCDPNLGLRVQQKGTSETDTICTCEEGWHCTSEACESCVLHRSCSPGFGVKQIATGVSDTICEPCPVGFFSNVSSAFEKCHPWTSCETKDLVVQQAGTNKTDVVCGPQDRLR

B1: AB011 (antibody, V domains shown)
VH: EVQLLESGGGLVQPGGSLRLSCTASGFTFSSYAMNWVRQAPGKGLEWVSAISGSGGTTFYADSVKGRFTISRDNSRTTLYLQMNSLRAEDTAVYYCAKDLGWSDSYYYYYGMDVWGQGTTVTVSS
VL: DIQMTQFPSSLSASVGDRVTITCRASQGIRNDLGWYQQKPGKAPKRLIYAASRLHRGVPSRFSGSGSGTEFTLTISSLQPEDFATYYCLQHNSYPCSFGQGTKLEIKR
On to B1, for which the results for the EC50 in [1] and in [2] were 0.28 nM and 0.3 nM, respectively. Also, the affinity in test [3], expressed as Kd, was 0.848 nM.

B2: DVD032 IGF1R arm (antibody, V domains shown)
VH: B1 VH
VL: B1 VL
modifications: DVD-Ig outer
On to B2, for which the EC50 in [1] turned out to be 0.16 nM; in test [2], 0.2 nM. Also, the Kd in test [3] stood at 0.829 nM.

B3: DVD022 IGF1R arm (antibody, V domains shown)
VH: B1 VH
VL: B1 VL
modifications: DVD-Ig outer
As to B3, the EC50 in test [1] came out at 0.26 nM; in test [2] it was 0.3 nM. Also, the Kd in test [3] was 0.778 nM.

B4: AB010 (antibody, V domains shown)
VH: QVQLVQSGAEVKKPGASVKVSCKASGYTFTSYDINWVRQATGQGLEWMGWMNPNSGNTGYAQKFQGRVTMTRNTSISTAYMELSSLRSEDTAVYYCARDPYYYYYGMDVWGQGTTVTVSS
VL: QSVLTQPPSVSAAPGQKVTISCSGSSSNIENNHVSWYQQLPGTAPKLLIYDNNKRPSGIPDRFSGSKSGTSATLGITGLQTGDEADYYCETWDTSLSAGRVFGGGTKLTVLG
Take B4: the Kd in test [4] is 0.388 nM; in [8], < 0.000299 nM and 0.000423 nM. Further, the EC50 in [5] is 4.77 nM; in test [6], 10 nM and 18.1 nM; in [7] it was 4.8 nM; in [9], 18.1 nM and 10 nM.

B5: DVD029 IGF1,2 arm (antibody, V domains shown)
VH: B4 VH
VL: B4 VL
modifications: DVD-Ig inner
As to B5, the figures for the Kd in test [4] and in [8] were 6.36 nM and 0.302 nM, respectively. Besides, the EC50 in test [5] is 229 nM; in test [6], 206 nM; in [7], 229 nM; in [9] it was 206 nM.

B6: DVD030 IGF1,2 arm (antibody, V domains shown)
VH: B4 VH
VL: B4 VL
modifications: DVD-Ig outer
For B6, the Kd in test [4] was 0.292 nM; in test [8], 0.00234 nM. The EC50 in test [5] came to 1.75 nM; in [6] it was 5.5 nM; in [7] it was 1.8 nM; in test [9], 5.49 nM.

B7: DVD009 CD40 arm (antibody, V domains shown)
VH: QVQLVESGGGVVQPGRSLRLSCAASGFTFSSYGMHWVRQAPGKGLEWVAVISYEESNRYHADSVKGRFTISRDNSKITLYLQMNSLRTEDTAVYYCARDGGIAAPGPDYWGQGTLVTVSS
VL: DIVMTQSPLSLTVTPGEPASISCRSSQSLLYSNGYNYLDWYLQKPGQSPQVLISLGSNRASGVPDRFSGSGSGTDFTLKISRVEAEDVGVYYCMQARQTPFTFGPGTKVDIRR
modifications: DVD-Ig inner
Regarding B7, a half-maximal effect in [10] (EC50) was put at 3.55 nM. This lies in the single-digit nanomolar range.

B8: AB009 (antibody, V domains shown)
VH: B7 VH
VL: B7 VL
In test [10], B8 came in with an EC50 of 0.99 nM. This EC50 is about 3.6-fold lower than that of the molecule before.
